Measured values reported in US20210054071A1 (NANJING LEGEND BIOTECH, published 2021).
Like-named read-outs stand apart in the source and are kept apart here.

What was measured:
PD-1 expressed on cells [1] = molecular target: T1, PD-1 expressed on cells (UniProt Q15116 25-288, limits assumed); assay: FACS competition, PD-L1 binding to CHO-PD-1 cells
T1 construct: whole, on cells; also called CHO-PD-1 cells; PD-1 effector cells

PD-1 expressed on cells [2] = molecular target: T1, PD-1 expressed on cells; assay: FACS, CHO-PD-1 cells
PD-1 expressed on cells [3] = molecular target: T1, PD-1 expressed on cells; assay: cell-based or functional assay
[4] = molecular target: T2, human PD-1 (Acrobiosystems) (human, UniProt Q15116 25-167); assay: SPR as in Example 2
T2 construct: bought
T2 sequence (Q15116 25-167 limits assumed): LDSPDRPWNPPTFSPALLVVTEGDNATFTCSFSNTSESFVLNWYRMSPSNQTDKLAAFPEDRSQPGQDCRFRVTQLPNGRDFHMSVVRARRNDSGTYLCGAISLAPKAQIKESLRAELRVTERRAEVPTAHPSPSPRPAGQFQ

[5] = molecular target: T3, human TIGIT expressed on CHO-K1 cells (human, UniProt Q495A1 22-244); assay: FACS, CHO-K1 cells expressing human TIGIT
T3 construct: also called CHO/human TIGIT cells; CHO-TIGIT cells
T3 sequence: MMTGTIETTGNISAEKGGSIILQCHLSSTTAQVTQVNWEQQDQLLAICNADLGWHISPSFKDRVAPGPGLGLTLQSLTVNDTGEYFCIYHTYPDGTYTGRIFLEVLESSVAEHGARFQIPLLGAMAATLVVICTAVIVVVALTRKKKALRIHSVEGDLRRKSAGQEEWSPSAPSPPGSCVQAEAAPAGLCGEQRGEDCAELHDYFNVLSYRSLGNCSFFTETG

[6] = molecular target: T3, human TIGIT expressed on CHO-K1 cells; assay: FACS competition, biotinylated CD155-Fc on CHO/human TIGIT cells
[7] = molecular target: T3, human TIGIT expressed on CHO-K1 cells; assay: FACS competition, CD155 binding to CHO-TIGIT cells
[8] = molecular target: T3, human TIGIT expressed on CHO-K1 cells; assay: FACS, CHO-TIGIT cells
[9] = molecular target: T3, human TIGIT expressed on CHO-K1 cells; assay: FACS competition, CD155 binding to CHO-TIGIT cells; remark: listed apart in the source
[10] = molecular target: T4, cynomolgus TIGIT expressed on CHO-K1 cells (cynomolgus, UniProt A0A7N9I9V4 89-312); assay: FACS, CHO-K1 cells expressing cynomolgus TIGIT
T4 construct: whole, on cells
T4 sequence (A0A7N9I9V4 entry or part of it): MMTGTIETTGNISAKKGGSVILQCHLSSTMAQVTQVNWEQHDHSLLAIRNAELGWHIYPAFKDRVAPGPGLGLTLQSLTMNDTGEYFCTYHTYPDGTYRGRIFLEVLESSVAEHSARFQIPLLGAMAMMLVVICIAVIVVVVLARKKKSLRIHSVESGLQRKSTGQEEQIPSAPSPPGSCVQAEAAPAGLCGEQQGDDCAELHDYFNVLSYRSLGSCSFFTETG

[11] = molecular target: T3, human TIGIT expressed on CHO-K1 cells; assay: FACS, CHO-K1 cells expressing human TIGIT; remark: listed apart in the source
[12] = molecular target: T3, human TIGIT expressed on CHO-K1 cells; assay: FACS competition, biotinylated CD155-Fc on CHO/human TIGIT cells; remark: listed apart in the source
[13] = molecular target: T3, human TIGIT expressed on CHO-K1 cells; assay: FACS, CHO-TIGIT cells; remark: listed apart in the source
[14] = molecular target: T5, TIGIT on TIGIT effector cells (UniProt Q495A1 22-244, limits assumed); assay: cell-based or functional assay
T5 sequence (looked up): T3 sequence

[15] = molecular target: T4, cynomolgus TIGIT expressed on CHO-K1 …; assay: FACS, CHO-K1 cells expressing cynomolgus TIGIT; remark: listed apart in the source
[16] = molecular target: T5, TIGIT on TIGIT effector cells; assay: cell-based or functional assay; remark: listed apart in the source
[17] = molecular target: T5, TIGIT on TIGIT effector cells; assay: cell-based or functional assay; remark: listed apart in the source
[18] = molecular target: T6, human TIGIT-His protein (Acrobiosystems) (human, UniProt Q495A1 22-141); assay: SPR (BIAcore T200), target amine-coupled to CM5 chip
T6 construct: Bought; Genbank NP_776160
T6 sequence: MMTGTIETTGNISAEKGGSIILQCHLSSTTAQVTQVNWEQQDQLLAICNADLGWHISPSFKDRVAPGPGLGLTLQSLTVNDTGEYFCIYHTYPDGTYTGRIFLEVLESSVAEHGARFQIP

[19] = molecular target: T7, cynomolgus TIGIT-His protein (Acrobiosystems) (cynomolgus, UniProt A0A7N9I9V4 89-209); assay: as above
T7 construct: bought
T7 sequence (A0A7N9I9V4 entry or part of it): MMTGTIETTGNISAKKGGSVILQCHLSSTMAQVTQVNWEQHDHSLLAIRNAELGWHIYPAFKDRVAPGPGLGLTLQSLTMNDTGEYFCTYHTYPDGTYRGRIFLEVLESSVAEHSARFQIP

[20] = molecular target: T5, TIGIT on TIGIT effector cells; assay: cell-based or functional assay; remark: listed apart in the source
[21] = molecular target: T6, human TIGIT-His protein (Acrobiosystems); assay: SPR (BIAcore T200), target amine-coupled to CM5 chip; remark: listed apart in the source
[22] = molecular target: T7, cynomolgus TIGIT-His protein …; assay: as above; remark: listed apart in the source
murine TIGIT-Fc = molecular target: T8, murine TIGIT-Fc (murine, UniProt P86176 29-148, limits assumed); assay: FACS competition, murine TIGIT-Fc binding to CT26 cells (murine CD155)
T8 construct: not shown: Fc part, detected with a secondary antibody against human Fc
T8 sequence (looked up): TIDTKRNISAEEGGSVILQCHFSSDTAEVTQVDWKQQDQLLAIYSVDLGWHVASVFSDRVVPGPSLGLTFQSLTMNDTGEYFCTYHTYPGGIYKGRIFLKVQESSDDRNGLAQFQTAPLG

[23] = molecular target: T9, murine TIGIT expressed on CHO-K1 cells (murine, UniProt P86176 29-249); assay: FACS, CHO-K1 cells expressing murine TIGIT
T9 construct: whole, on cells; also called CHO/mouse TIGIT; mouse TIGIT expressed on CHO cells
T9 sequence (looked up): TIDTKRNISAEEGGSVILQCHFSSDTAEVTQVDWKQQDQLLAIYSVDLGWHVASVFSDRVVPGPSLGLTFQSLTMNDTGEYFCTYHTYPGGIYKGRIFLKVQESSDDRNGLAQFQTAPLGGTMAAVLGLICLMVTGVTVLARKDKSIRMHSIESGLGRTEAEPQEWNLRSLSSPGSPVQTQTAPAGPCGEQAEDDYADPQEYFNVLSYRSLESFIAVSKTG

[24] = molecular target: T10, mouse TIGIT-His protein (Acrobiosystems) (mouse, UniProt P86176 29-148, limits assumed); assay: SPR as in Example 2
T10 construct: bought
T10 sequence (looked up): T8 sequence (looked up)

T1 sequence (Q15116 25-288 limits assumed): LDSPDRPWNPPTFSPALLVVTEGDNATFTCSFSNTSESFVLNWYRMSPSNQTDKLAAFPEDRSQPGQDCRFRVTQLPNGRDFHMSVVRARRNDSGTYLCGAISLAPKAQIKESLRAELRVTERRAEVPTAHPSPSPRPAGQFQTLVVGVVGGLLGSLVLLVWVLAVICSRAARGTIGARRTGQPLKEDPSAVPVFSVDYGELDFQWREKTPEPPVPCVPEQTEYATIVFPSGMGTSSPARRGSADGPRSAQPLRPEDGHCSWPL

B1: PD1-BM-min (IgG4) (antibody, V domains shown)
VH: EVQLVESGGGLVQPGGSLRLSCAASGFVFSRYDMAWVRQAPGKGLEWVSFISGGGSNTYYPDTVKGRFTISRDNSKNTLYLQMNSLRAEDTAVYYCISPYYYAMEYWGQGTTVTVSS
VL: DIQMTQSPSSVSASVGDRVTITCKASQDVDTAVAWYQQKPGKAPKLLIYWASTRHTGVPSRFSGSGSGTDFTLTISSLQPEDFATYYCQQYSTFPWTFGGGTKVEIKR
notes: anti-PD-1 monoclonal antibody, human IgG4 Fc
EC50 (PD-1 expressed on cells [1]): 1.51 nM
EC50 (PD-1 expressed on cells [2]): 1.72 nM
PD-1 cell based assay EC50 (PD-1 expressed on cells [3]): 1.21 nM
Kd [4]: 1.2 nM

B2: 22G2 (IgG1) mAb (antibody, V domains shown)
VH: QVQLQESGPGLVKPSETLSLTCTVSGGSVSSGIYYWSWIRQPPGKGLEWIGYIYYSGSTNYNPSLKSRVTISVDTSKNQFSLKLSSVTAADTAVYYCARDYYVSGNYYNVDYYFFGVDVWGQGTTVTVSS
VL: EIVLTQSPATLSLSPGERATLSCRASQSVSSYLAWYQQKPGQAPRLLIYDASNRATGIPARFSGSGSGTDFTLTISSLEPEDFAVYYCQQRSNWPPLFTFGPGTKVDIKR
notes: also called 22G2 (IgG1) (anti-TIGIT)
EC50 [5]: 1.14 nM
EC50 [6]: 2.7 nM
EC50 [7]: 2.31 nM
EC50 [8]: 1.6 nM
EC50 [9]: 1.11 nM
EC50 [10]: 1.12 nM
EC50 [11]: 0.494 nM
EC50 [12]: 1.94 nM
EC50 [13]: 2.46 nM
TIGIT Reporter assay EC50 [14]: 4.65 nM
EC50 [15]: 0.604 nM
TIGIT IL-2 release EC50 [16]: 2.26 nM
TIGIT Reporter assay EC50 [16]: 6.01 nM
TIGIT/CD155 blockade reporter assay, EC50 [17]: 7.92 nM
TIGIT/CD155 blockade reporter assay, Signal span [17]: 108
Kd [18]: 0.12 nM
koff [18]: 0.00016 s⁻¹
kon [18]: 1.4e+06 M⁻¹ s⁻¹
Kd [19]: 4.1 nM
koff [19]: 0.0056 s⁻¹
kon [19]: 1.3e+06 M⁻¹ s⁻¹
IL-2 release assay EC50 [20]: 3.07 nM
Reporter assay EC50 [20]: 3.04 nM
Kd [21]: 0.19 nM
koff [21]: 0.00027 s⁻¹
kon [21]: 1.4e+06 M⁻¹ s⁻¹
Kd [22]: 3.4 nM
koff [22]: 0.0068 s⁻¹
kon [22]: 2e+06 M⁻¹ s⁻¹

B3: 10A7 mAb (antibody, human IgG1, kappa, V domains shown)
VH: EVQLVESGGGLTQPGKSLKLSCEASGFTFSSFTMHWVRQSPGKGLEWVAFIRSGSGIVFYADAVRGRFTISRDNAKNLLFLQMNDLKSEDTAMYYCARRPLGHNTFDSWGQGTLVTVSS
VL: DIVMTQSPSSLAVSPGEKVTMTCKSSQSLYYSGVKENLLAWYQQKPGQSPKLLIYYASIRFTGVPDRFTGSGSGTDYTLTITSVQAEDMGQYFCQQGINNPLTFGDGTKLEIKR
EC50 [5]: 4.06 nM
EC50 (murine TIGIT-Fc): 71.3 nM
EC50 [6]: 5.27 nM
EC50 [23]: 0.709 nM

B4: BTP-13 (bispecific antibody, human IgG4 S228P, kappa)
heavy: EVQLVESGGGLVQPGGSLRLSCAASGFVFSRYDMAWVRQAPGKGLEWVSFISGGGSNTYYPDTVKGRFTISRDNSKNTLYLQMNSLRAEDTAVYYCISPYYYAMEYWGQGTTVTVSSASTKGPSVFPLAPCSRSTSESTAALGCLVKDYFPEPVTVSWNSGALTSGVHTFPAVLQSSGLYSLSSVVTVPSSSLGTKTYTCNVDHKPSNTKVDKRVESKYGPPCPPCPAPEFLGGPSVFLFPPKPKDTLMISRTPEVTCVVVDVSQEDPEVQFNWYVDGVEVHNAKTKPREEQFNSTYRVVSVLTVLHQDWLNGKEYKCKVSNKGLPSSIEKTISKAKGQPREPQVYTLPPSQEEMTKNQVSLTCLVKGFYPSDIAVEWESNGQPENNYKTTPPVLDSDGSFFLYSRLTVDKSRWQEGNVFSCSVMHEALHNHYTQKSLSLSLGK
light: EVQLVESGGGLVQPGGSLRLSCAASGYKYGVYSMGWFRQAPGKGLEGVSAICSGGRTTYSDSVKGRFTISRDNSNQILYLQMNSLRAEDTAVYYCAARPLWTGDCDLSSSWYKTWGQGTLVTVSSEPKSSDKTHTSPPSPDIQMTQSPSSVSASVGDRVTITCKASQDVDTAVAWYQQKPGKAPKLLIYWASTRHTGVPSRFSGSGSGTDFTLTISSLQPEDFATYYCQQYSTFPWTFGGGTKVEIKRTVAAPSVFIFPPSDEQLKSGTASVVCLLNNFYPREAKVQWKVDNALQSGNSQESVTEQDSKDSTYSLSSTLTLSKADYEKHKVYACEVTHQGLSSPVTKSFNRGEC
notes: AS19584VH28 - mutated hIgG1 hinge - PD1-BM-min light chain; PD1-BM-min heavy chain (IgG4); also called BTP-13 (IgG4); PD-1×TIGIT BABP
EC50 (PD-1 expressed on cells [1]): 2.21 nM
EC50 (PD-1 expressed on cells [2]): 1.92 nM
PD-1 cell based assay EC50 (PD-1 expressed on cells [3]): 2.33 nM
TIGIT IL-2 release EC50 [14]: 0.565 nM
TIGIT Reporter assay EC50 [14]: 4.03 nM
Kd [4]: 0.42 nM
Kd [24]: 0.62 nM
